Reference: IntAct's records for PubMed 21471201

B1: NAD-dependent protein deacetylase sirtuin-1 (Homo sapiens), Q96EB6 (parent)
chain: MADEAALALQPGGSPSAAGADREAASSPAGEPLRKRPRRDGPGLERSPGEPGGAAPEREVPAAARGCPGAAAAALWREAEAEAAAAGGEQEAQATAAAGEGDNGPGLQGPSREPPLADNLYDEDDDDEGEEEEEAAAAAIGYRDNLLFGDEIITNGFHSCESDEEDRASHASSSDWTPRPRIGPYTFVQQHLMIGTDPRTILKDLLPETIPPPELDDMTLWQIVINILSEPPKRKKRKDINTIEDAVKLLQECKKIIVLTGAGVSVSCGIPDFRSRDGIYARLAVDFPDLPDPQAMFDIEYFRKDPRPFFKFAKEIYPGQFQPSLCHKFIALSDKEGKLLRNYTQNIDTLEQVAGIQRIIQCHGSFATASCLICKYKVDCEAVRGDIFNQVVPRCPRCPADEPLAIMKPEIVFFGENLPEQFHRAMKYDKDEVDLLIVIGSSLKVRPVALIPSSIPHEVPQILINREPLPHLHFDVELLGDCDVIINELCHRLGGEYAKLCCNPVKLSEITEKPPRTQKELAYLSELPPTPLHVSEDSSSPERTSPPDSSVIVTLLDQAAKSNDDLDVSESKGCMEEKPQEVQTSRNVESIAEQMENPDLKNVGSSTGEKNERTSVAGTVRKCWPNRVAKEQISRRLDGNQYLFLPPNRYIFHGAEVYSDSEDDVLSSSSCGSNSDSGTCQSPSLEEPMEDESEIEEFYNGLEDEPDVPERAGGAGFGTDGDDQEAINEAISVKQEVTDMNYPSNKS

Variants of: B1
Conditions: with rptor_human RPTOR

Variant | effect of a mutation on the interaction
F474A | decreasing interaction
